Data as given in patent US20100260668A1 (published 2010).

B1: DVD486 (bispecific antibody, IgG1)
VH: EVQLVESGGGLVQPGGSLRLSCAASGFTINASWIHWVRQAPGKGLEWVGAIYPYSGYTNYADSVKGRFTISADTSKNTAYLQMNSLRAEDTAVYYCARWGHSTSPWAMDYWGQGTLVTVSSASTKGPEVQLVESGGGLVQPGGSLRLSCAASGFTFTDNWISWVRQAPGKGLEWVGYISPNSGFTYYADSVKGRFTISADTSKNTAYLQMNSLRAEDTAVYYCARDNFGGYFDYWGQGTLVTVSS
VL: DIQMTQSPSSLSASVGDRVTITCRASQVIRRSLAWYQQKPGKAPKLLIYAASNLASGVPSRFSGSGSGTDFTLTISSLQPEDFATYYCQQSNTSPLTFGQGTKVEIKRTVAAPSVFIFPPDIQMTQSPSSLSASVGDRVTITCRASQDVSTAVAWYQQKPGKAPKLLIYSASFLYSGVPSRFSGSGSGTDFTLTISSLQPEDFATTYYCQQSYTGTVTFGQGTKVEIKR
notes: DVD-Ig, outer AB071 / inner AB015; HC linker short, LC linker long; also called DVD486H; DVD486L
B2: DVD465 (bispecific antibody, IgG1)
VH: EVQLVESGGGLVQPGGSLRLSCAASGFTFTDNWISWVRQAPGKGLEWVGYISPNSGFTYYADSVKGRFTISADTSKNTAYLQMNSLRAEDTAVYYCARDNFGGYFDYWGQGTLVTVSSASTKGPEVQLVESGGGLVQPGGSLRLSCAASGFTISDYWIHWVRQAPGKGLEWVAGITPAGGYTYYADSVKGRFTISADTSKNTAYLQMNSLRAEDTAVYYCARFVFFLPYAMDYWGQGTLVTVSS
VL: DIQMTQSPSSLSASVGDRVTITCRASQDVSTAVAWYQQKPGKAPKLLIYSASFLYSGVPSRFSGSGSGTDFTLTISSLQPEDFATTYYCQQSYTGTVTFGQGTKVEIKRTVAAPDIQMTQSPSSLSASVGDRVTITCRASQDVSTAVAWYQQKPGKAPKLLIYSASFLYSGVPSRFSGSGSGTDFTLTISSLQPEDFATYYCQQSYTTPPTFGQGTKVEIKR
notes: HC linker short, LC linker short; also called DVD465H; DVD465L
B3: DVD466 (bispecific antibody, IgG1)
VH: EVQLVESGGGLVQPGGSLRLSCAASGFTISDYWIHWVRQAPGKGLEWVAGITPAGGYTYYADSVKGRFTISADTSKNTAYLQMNSLRAEDTAVYYCARFVFFLPYAMDYWGQGTLVTVSSASTKGPEVQLVESGGGLVQPGGSLRLSCAASGFTFTDNWISWVRQAPGKGLEWVGYISPNSGFTYYADSVKGRFTISADTSKNTAYLQMNSLRAEDTAVYYCARDNFGGYFDYWGQGTLVTVSS
VL: DIQMTQSPSSLSASVGDRVTITCRASQDVSTAVAWYQQKPGKAPKLLIYSASFLYSGVPSRFSGSGSGTDFTLTISSLQPEDFATYYCQQSYTTPPTFGQGTKVEIKRTVAAPDIQMTQSPSSLSASVGDRVTITCRASQDVSTAVAWYQQKPGKAPKLLIYSASFLYSGVPSRFSGSGSGTDFTLTISSLQPEDFATTYYCQQSYTGTVTFGQGTKVEIKR
notes: HC linker short, LC linker short; also called DVD466H; DVD466L
B4: DVD471 (bispecific antibody, IgG1)
VH: EVQLVESGGGLVQPGGSLRLSCAASGFTFTDNWISWVRQAPGKGLEWVGYISPNSGFTYYADSVKGRFTISADTSKNTAYLQMNSLRAEDTAVYYCARDNFGGYFDYWGQGTLVTVSSASTKGPSVFPLAPEVQLVESGGGLVQPGGSLRLSCAASGFTISDYWIHWVRQAPGKGLEWVAGITPAGGYTYYADSVKGRFTISADTSKNTAYLQMNSLRAEDTAVYYCARFVFFLPYAMDYWGQGTLVTVSS
VL: DIQMTQSPSSLSASVGDRVTITCRASQDVSTAVAWYQQKPGKAPKLLIYSASFLYSGVPSRFSGSGSGTDFTLTISSLQPEDFATTYYCQQSYTGTVTFGQGTKVEIKRTVAAPSVFIFPPDIQMTQSPSSLSASVGDRVTITCRASQDVSTAVAWYQQKPGKAPKLLIYSASFLYSGVPSRFSGSGSGTDFTLTISSLQPEDFATYYCQQSYTTPPTFGQGTKVEIKR
notes: HC linker long, LC linker long; also called DVD471H; DVD471L
B5: DVD472 (bispecific antibody, IgG1)
VH: EVQLVESGGGLVQPGGSLRLSCAASGFTISDYWIHWVRQAPGKGLEWVAGITPAGGYTYYADSVKGRFTISADTSKNTAYLQMNSLRAEDTAVYYCARFVFFLPYAMDYWGQGTLVTVSSASTKGPSVFPLAPEVQLVESGGGLVQPGGSLRLSCAASGFTFTDNWISWVRQAPGKGLEWVGYISPNSGFTYYADSVKGRFTISADTSKNTAYLQMNSLRAEDTAVYYCARDNFGGYFDYWGQGTLVTVSS
VL: DIQMTQSPSSLSASVGDRVTITCRASQDVSTAVAWYQQKPGKAPKLLIYSASFLYSGVPSRFSGSGSGTDFTLTISSLQPEDFATYYCQQSYTTPPTFGQGTKVEIKRTVAAPSVFIFPPDIQMTQSPSSLSASVGDRVTITCRASQDVSTAVAWYQQKPGKAPKLLIYSASFLYSGVPSRFSGSGSGTDFTLTISSLQPEDFATTYYCQQSYTGTVTFGQGTKVEIKR
notes: HC linker long, LC linker long; also called DVD472H; DVD472L
B6: DVD477 (bispecific antibody, IgG1)
VH: EVQLVESGGGLVQPGGSLRLSCAASGFTFTDNWISWVRQAPGKGLEWVGYISPNSGFTYYADSVKGRFTISADTSKNTAYLQMNSLRAEDTAVYYCARDNFGGYFDYWGQGTLVTVSSASTKGPSVFPLAPEVQLVESGGGLVQPGGSLRLSCAASGFTISDYWIHWVRQAPGKGLEWVAGITPAGGYTYYADSVKGRFTISADTSKNTAYLQMNSLRAEDTAVYYCARFVFFLPYAMDYWGQGTLVTVSS
VL: DIQMTQSPSSLSASVGDRVTITCRASQDVSTAVAWYQQKPGKAPKLLIYSASFLYSGVPSRFSGSGSGTDFTLTISSLQPEDFATTYYCQQSYTGTVTFGQGTKVEIKRTVAAPDIQMTQSPSSLSASVGDRVTITCRASQDVSTAVAWYQQKPGKAPKLLIYSASFLYSGVPSRFSGSGSGTDFTLTISSLQPEDFATYYCQQSYTTPPTFGQGTKVEIKR
notes: HC linker long, LC linker short; also called DVD477H; DVD477L
B7: DVD478 (bispecific antibody, IgG1)
VH: EVQLVESGGGLVQPGGSLRLSCAASGFTISDYWIHWVRQAPGKGLEWVAGITPAGGYTYYADSVKGRFTISADTSKNTAYLQMNSLRAEDTAVYYCARFVFFLPYAMDYWGQGTLVTVSSASTKGPSVFPLAPEVQLVESGGGLVQPGGSLRLSCAASGFTFTDNWISWVRQAPGKGLEWVGYISPNSGFTYYADSVKGRFTISADTSKNTAYLQMNSLRAEDTAVYYCARDNFGGYFDYWGQGTLVTVSS
VL: DIQMTQSPSSLSASVGDRVTITCRASQDVSTAVAWYQQKPGKAPKLLIYSASFLYSGVPSRFSGSGSGTDFTLTISSLQPEDFATYYCQQSYTTPPTFGQGTKVEIKRTVAAPDIQMTQSPSSLSASVGDRVTITCRASQDVSTAVAWYQQKPGKAPKLLIYSASFLYSGVPSRFSGSGSGTDFTLTISSLQPEDFATTYYCQQSYTGTVTFGQGTKVEIKR
notes: HC linker long, LC linker short; also called DVD478H; DVD478L
B8: DVD483 (bispecific antibody, IgG1)
VH: EVQLVESGGGLVQPGGSLRLSCAASGFTFTDNWISWVRQAPGKGLEWVGYISPNSGFTYYADSVKGRFTISADTSKNTAYLQMNSLRAEDTAVYYCARDNFGGYFDYWGQGTLVTVSSASTKGPEVQLVESGGGLVQPGGSLRLSCAASGFTISDYWIHWVRQAPGKGLEWVAGITPAGGYTYYADSVKGRFTISADTSKNTAYLQMNSLRAEDTAVYYCARFVFFLPYAMDYWGQGTLVTVSS
VL: DIQMTQSPSSLSASVGDRVTITCRASQDVSTAVAWYQQKPGKAPKLLIYSASFLYSGVPSRFSGSGSGTDFTLTISSLQPEDFATTYYCQQSYTGTVTFGQGTKVEIKRTVAAPSVFIFPPDIQMTQSPSSLSASVGDRVTITCRASQDVSTAVAWYQQKPGKAPKLLIYSASFLYSGVPSRFSGSGSGTDFTLTISSLQPEDFATYYCQQSYTTPPTFGQGTKVEIKR
notes: HC linker short, LC linker long; also called DVD483H; DVD483L
B9: DVD484 (bispecific antibody, IgG1)
VH: EVQLVESGGGLVQPGGSLRLSCAASGFTISDYWIHWVRQAPGKGLEWVAGITPAGGYTYYADSVKGRFTISADTSKNTAYLQMNSLRAEDTAVYYCARFVFFLPYAMDYWGQGTLVTVSSASTKGPEVQLVESGGGLVQPGGSLRLSCAASGFTFTDNWISWVRQAPGKGLEWVGYISPNSGFTYYADSVKGRFTISADTSKNTAYLQMNSLRAEDTAVYYCARDNFGGYFDYWGQGTLVTVSS
VL: DIQMTQSPSSLSASVGDRVTITCRASQDVSTAVAWYQQKPGKAPKLLIYSASFLYSGVPSRFSGSGSGTDFTLTISSLQPEDFATYYCQQSYTTPPTFGQGTKVEIKRTVAAPSVFIFPPDIQMTQSPSSLSASVGDRVTITCRASQDVSTAVAWYQQKPGKAPKLLIYSASFLYSGVPSRFSGSGSGTDFTLTISSLQPEDFATTYYCQQSYTGTVTFGQGTKVEIKR
notes: HC linker short, LC linker long; also called DVD484H; DVD484L
B10: DVD445 (bispecific antibody, IgG1)
VH: QVQLVQSGAEVKKPGASVKISCKASGYSFTAYYIHWVKQAPGQGLEWIGYISSYNGATNYNQKFKGRVTFTTDTSTSTAYMELRSLRSDDTAVYYCARDYDYDVGMDYWGQGTLVTVSSASTKGPEVQLVESGGGLVQPGGSLRLSCAASGFTINASWIHWVRQAPGKGLEWVGAIYPYSGYTNYADSVKGRFTISADTSKNTAYLQMNSLRAEDTAVYYCARWGHSTSPWAMDYWGQGTLVTVSS
VL: DIVMTQSPDSLAVSLGERATISCRASESVDNYGISFMKWFQQKPGQPPKLLIYAASNQGSGVPDRFSGSGSGTDFTLTISSLQAEDVAVYYCQQSKEVPWTFGGGTKVEIKRTVAAPDIQMTQSPSSLSASVGDRVTITCRASQVIRRSLAWYQQKPGKAPKLLIYAASNLASGVPSRFSGSGSGTDFTLTISSLQPEDFATYYCQQSNTSPLTFGQGTKVEIKR
notes: DVD-Ig, outer AB069 / inner AB071; HC linker short, LC linker short; also called DVD445H; DVD445L
B11: DVD446 (bispecific antibody, IgG1)
VH: EVQLVESGGGLVQPGGSLRLSCAASGFTINASWIHWVRQAPGKGLEWVGAIYPYSGYTNYADSVKGRFTISADTSKNTAYLQMNSLRAEDTAVYYCARWGHSTSPWAMDYWGQGTLVTVSSASTKGPQVQLVQSGAEVKKPGASVKISCKASGYSFTAYYIHWVKQAPGQGLEWIGYISSYNGATNYNQKFKGRVTFTTDTSTSTAYMELRSLRSDDTAVYYCARDYDYDVGMDYWGQGTLVTVSS
VL: DIQMTQSPSSLSASVGDRVTITCRASQVIRRSLAWYQQKPGKAPKLLIYAASNLASGVPSRFSGSGSGTDFTLTISSLQPEDFATYYCQQSNTSPLTFGQGTKVEIKRTVAAPDIVMTQSPDSLAVSLGERATISCRASESVDNYGISFMKWFQQKPGQPPKLLIYAASNQGSGVPDRFSGSGSGTDFTLTISSLQAEDVAVYYCQQSKEVPWTFGGGTKVEIKR
notes: DVD-Ig, outer AB071 / inner AB069; HC linker short, LC linker short; also called DVD446H; DVD446L
B12: DVD451 (bispecific antibody, IgG1)
VH: QVQLVQSGAEVKKPGASVKISCKASGYSFTAYYIHWVKQAPGQGLEWIGYISSYNGATNYNQKFKGRVTFTTDTSTSTAYMELRSLRSDDTAVYYCARDYDYDVGMDYWGQGTLVTVSSASTKGPSVFPLAPEVQLVESGGGLVQPGGSLRLSCAASGFTINASWIHWVRQAPGKGLEWVGAIYPYSGYTNYADSVKGRFTISADTSKNTAYLQMNSLRAEDTAVYYCARWGHSTSPWAMDYWGQGTLVTVSS
VL: DIVMTQSPDSLAVSLGERATISCRASESVDNYGISFMKWFQQKPGQPPKLLIYAASNQGSGVPDRFSGSGSGTDFTLTISSLQAEDVAVYYCQQSKEVPWTFGGGTKVEIKRTVAAPSVFIFPPDIQMTQSPSSLSASVGDRVTITCRASQVIRRSLAWYQQKPGKAPKLLIYAASNLASGVPSRFSGSGSGTDFTLTISSLQPEDFATYYCQQSNTSPLTFGQGTKVEIKR
notes: DVD-Ig, outer AB069 / inner AB071; HC linker long, LC linker long; also called DVD451H; DVD451L

What follows are binders tested against VEGF (VEGF 1-165 aa, R&D Systems 293-VE-010) (UniProt P15692 27-191) (assay: Direct bind ELISA, VEGF coated on plate;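 further: ELISA screening of antibodies for binding to the plate-coated target antigen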).
Chain of VEGF (VEGF 1-165 aa, R&D Systems 293-VE-010) (P15692 other isoform, or with tags, fused parts or gaps limits assumed): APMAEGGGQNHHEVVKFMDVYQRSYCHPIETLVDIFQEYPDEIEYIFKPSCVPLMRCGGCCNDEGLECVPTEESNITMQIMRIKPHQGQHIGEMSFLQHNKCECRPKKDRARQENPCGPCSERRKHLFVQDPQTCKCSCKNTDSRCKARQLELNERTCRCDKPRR
B1 showed an EC50 of 28 nM.
B2 showed an EC50 of 396 nM.
B3 showed an EC50 of 2.61 nM.
Binder B4 has an EC50 of 30.1 nM.
Work on B5 yielded an EC50 of 9.22 nM.
In the case of B6, the EC50 is reported as 41.7 nM.
B7 showed an EC50 of 2.72 nM.
Work on B8 yielded an EC50 of 46.1 nM.
In the case of B9, the EC50 is reported as 4.84 nM.
B10 was tested, and the EC50 was 14500 nM.
B11 showed an EC50 of 14.4 nM.
In the case of B12, the EC50 is reported as 2400 nM.
